Experimental data: the DeepSol protein solubility set

Experiment: soluble on expression in E. coli; label from the status in PepcDB or PDB records

Sequence | soluble on expression in E. coli
MGSDKIHHHHHHMLRVKNLRLKYPNGDRKIFDNLNLEIKNKEKVLLLGPSGSGKSTLLNVLSGIVPNLIELPMKYDELNIDHDSGVIFQDPDNQFCMPKVYEELAFVLENRNIPRSEMDQEIENALKSVDLNVTHKTYVNNLSGGMKQKLAIVETILQKSKTLFLDEPTAMLDVKATEDLWKKLINLWKDQTVLIVEHKVEHIWQHVDRVLLLNYDGEIVADDTPEQILDHYEALLTEYGVWHPRAWHSAPRPIPLPNQTKNLLFHFDDGQIIRGKKTLFSSKELKLYSGEWLTITGKNGAGKTSLLEAMLQLIKYEGDMFYRDQLLSKIKQAAKHMYLVYQNPELQFITNSVYDEVYIHYNHLDPKHANDETMDLLKLLHLDQVKDHHPFEISTGQKRRLSVATALSSKAEIILLDEPTFGLDSHNTFQLIKLFQERVNQGQTIIMVTHDPEIIKRYPTRRLRVEDGCLKEMEGEHIV | not soluble
RQNLSSDIDILQSDTMPANAELAGLLQVAVGDTLFRIKVLSKVENRVVDYATMFFPAARLPGLPDAYLRHRSVTRALDDCGVADYTRRFTRVTARLPDAETVDYLGIPKNRPVLHVKSLNVDGEGRPVQYGVTCFNGDLVQLVMEQE | not soluble
MKPKKRQMEYLTRGLIAVQTEQGVFVSWRFLGTDHETTAFHLYRDGKRITRDPIAESTNFLDQNGTADSVYQVAAVNKGREEKLSKKARVWQENVLEVPLAKPEGGVTPDGKPYTYSANDASVGDIDGDGEYEMILKWDPSNSKDNAHDGYTGEVLIDAYKLDGTFLWRINLGRNIRAGAHYTQFMVYDLDGDGKAEIAMKTADGTTDGKGHIIGDEQADFRNEQGRILSGPEYLTVFKGETGEALTTVEYEPPRGKLEDWGDGYGNRMDRFLAGTAYLDGERPSLVMARGYYTRTVLVAYDFRNGRLKKRWVFDSNQPGHEAYAGQGNHSLSVADVDGDGKDEIIYGAMAVDHDGTGLYSTGLGHGDAMHVGDLDPSRKGLEVFQVHEDATKPYGLSLRDAGTGEILWGVHAGTDVGRGMAAHIDPSYKGSLVWGIDPPGNDGMSYGLFTSKGEKISDKAPSSANFAIWWDGDLVRELLDHDWDGTIGRPKIEKWDAENGCLKTIFQPAGVLSNNGTKGNPVLQANLFGDWREEVIWRTEDSSALRIYTTTHLTRHCFYTLMHDPVYRLGIAWQNTAYNQPPHTSFYLGTGMKKPPKPALYIAGSKAEAPLLEHHHHHH | soluble
MWIEIICGLVIYKLVRRFFYDDEFSDVETSDSTALFSVAHRLEKLYGGKAYVGLRIPDADTASRQDIDVVLVTKGDVVVISVKNLSGIVTVTSDGSWVCEGGKHHTTETFPDPLAEVKKQASVLESYLEQRGVTLLEGNVSCKVVIPNPSFRTIHAFPSEVITYEDWQQLKPVSKSKISGWVKGAFSTGKEMQESSHQKLNFILGTAPTWDRVELKSSKIVLGEFLEFKGKQEDTLALRNIKRSKVDRVSIQKTSMFGL | not soluble
MKMELKEGGKIFFRWFRKTFGEEVTDEGIIHRLEPPNLIEFSWNTYEDGFRSRVKMEFFPSSYNGTWVQVEDHTIVLNEEDMKIKLECAVGWGEMLTLAKIWIEYGISTLENP | not soluble
MTVQQKIASGRSSGRTVSQERLNQLSEQTRRAIAQLEPVTLDWVAPVATDMDVAVIGGGQSGVAIAFGLRRAGIRRVQVFDAATPETAGVWNTIARMHTLRAGKGFTGLEQGIPELTFEHWYVALHGDAAFAAMAEIPRTVWLDYLNWYRETAGIDVRWQHRLISIDPRSDAENAPLNLRFELQDKGVIDLSTQTIVLATGLDGLGEPYIPSVLSHTLPPDRLVHTNDLINFSSLRGLSVGVVGAAASAFDAAAVALEHGAASVHQFVRHGDLVEANDQAAARPSADKLFFPEFDDAMRWRLILERRRRSSAPDAAIARACQHPNHYLHFNVAAEQIVALGDDIVARTTTGDIMLDTVIAATGYRQNVYARPELTAAAPHILLWQDRVAAAEGESGWSSHPYLGKGFELQEIEPGSAPWLKRIHVYTFAAIISHGIHAGDIGSAAIALPRLIAAVARSLFIHARADYERLASLGPSIAVDRVAPSPVSGPWEAAPLEHHHHHH | soluble
FHPHTKGSQILMDLSHKAVKRQASFCNAITFSNRPVLIYEQVRLKITKKQCCWSGALRLGFTSKD | not soluble
MGSDKIHHHHHHAQETIPDVEVSTMDMWVKETRSVSEYLNMPVLHFKDEQVYSETLRQLKNMTENERFTYFQQLGFEGAYILWEQADRELDKIFDMESDDSHLIQEMINTYKDKYSDIFSFNTVDLFDVTPYFTFTDNDLSLLGNIKGYVVIGNSLRGPKYDYPTYDLDEVVSATRAAEPTPIEPGFKGFKDASLTIKNGKYKSTMTIGRIVNGNSFAVEFKTKKKQLFWKKSVKAGYSAMLTMKSSKFNYKNTVFCPYGKEVSILNLPIERVGNVFDAVVENFKSSRGDAKGNQSFHNIRVI | not soluble
MKEKSSVEVRLDKWLWAARFYKTRAMAREMIEGGKVHYNGQRSKPSKIVELNATLTLRQGNDERTVIVKAITEQRRPASEAVALYEETAESVEKREKMAQARKLNALTMPHPDRRPDKKERRDLLRFKHGDSE | not soluble
MAVYANTSVQDFYEFWLEEVKKKSLSYNSYYSFKKTVQNYILPLYGRLSMGKLRKNHVKRIYKKTYETSPSVAKIVKTVLTTSFKYALRYGYVEEDYVTGLKWNRVILEHHHHHH | not soluble
MSDETFMREAIALARANVEAGGRPFGAVLVRDGRVLARGVNQIHETHDPSAHAELQAIRQASQALGSPRLDGCVIYASGHPCPMCLAAMHLCGIQAAWFAYSNEDGEAFGLSTATLYAEMARPPQRQSLPLRALRPAGEEGLYRQWRQRQA | not soluble
MNFNQFENQNFFNGNPSDTFKDLGKQVFNYFSTPSFVTNIYETDELYYLEAELAGVNKEDISIDFNNNTLTIQATRSAKYKSEQLILDERNFESLMRQFDFEAVDKQHITASFENGLLTITLPKILEHHHHHH | soluble
TETRLLQARVSDLQRLSSLGRMVASLAHQVRTPLSSAMLYASNLGAPNLPPATRERFQSKLMDRLHDLEKQVNDMLLFAKGGDNKVIKPFTIAQLVAEYQPMVETALKNNNIDYFLEVEEEQTE | not soluble
SAAPRVFPLSCAVQQYAWGKMGSNSEVARLLASSDPLAQIAEDKPYAELWMGTHPRGDAKILDNRISQKTLSQWIAENQDSLGSKVKDTFNGNLPFLFKVLSVETPLSIQAHPNKELAEKLHLQAPQHYPDANHKPEMAIALTPFQGLCGFRPVEEIVTFLKTAAGNNMEDIFGELLLQLHQQYPGDIGCFAIYFLNLLTLKPGEAMFLEANVPHAYLKGDCVECMACSDNTVRAGLTPKFIDVPTLCEMLSYTPSSSKDRLFLPTRSQEDPYLSIYDPPVPDFTIMKTEVPGSVTEYKVLALDSASILLMVQGTVIASTPTTQTPIPLQRGGVLFIGANESVSLKLTEPKDLLIFRACCLL | soluble
MGRTSKDKRDVYYRLAKENGWRARSAFKLLQLDKEFQLFQGVTRAVDLCAAPGSWSQVLSQKIGGQGSGHVVAVDLQAMAPLPGVVQIQGDITQLSTAKEIIQHFKGCPADLVVCDGAPDVTGLHDVDEYMQAQLLLAALNIATHVLKPGGCFVAKIFRGRDVTLLYSQLQVFFSSVLCAKPRSSRNSSIEAFAVCQGYDPPEGFIPDLSKPLLDHSYDPDFNQLDGPTRIIVPFVTCGDLSSYDSDRSYPLDLEGGSEYKYTPPTQPPISPPYQEACTLKRKGQLAKEIRPQDCPISRVDTFPQPLAAPQCHTLLAPEMEDNEMSCSP | soluble
MRHHTIHPQLEQVFSAPYLRQLQKVTFQKGNYIGTQGQDITELTYILSGRVKIVRSLSNGKEHILQMPQQPQLLGDVELMTNQLAGSSVIALEEVQAAQLPLNNKEALLKDPIFLYHIGRNLAMALHRQGITASTNASYFVKERLATHILNIEEQDIFQLSPSILSSSFGTSYRHVQRVIKQFIDQGIIEKKAFKTYRILQRDSLETLAFID | not soluble
MGHHHHHHSHMIRDLEYYDSPILRKVAAPVTEITDELRQLVLDMSETMAFYKGVGLAAPQVGQSISLFIMGVERELEDGELVFCDFPRVFINPVITQKSEQLVYGNEGCLSIPGLRGEVARPDKITVSAKNLDGQQFSLALEGFLASIVMHETDHLHGVLYIDRMSDKDKTKQFKNNLEKIRRKYSILRGL | soluble
SSDANLDSSKKNFLEGEVDDEESVILTLVPVKDDANMEQMEPSVSSTSDVKLEKPKKYNPGHLLQTNEQFTAPQKARCKIPALPLPTILPPINKVCRDTLRDWCQQLGLSTNGKKIEVYLRLHRHAYPEQRQDMPEMSQETRLQRCSRKRKAVTKRARLQSSYEMNERAEETNTVEVITSAPGAMLASWARIAARAVQPKALNSCSIPVSVEAFLMQASGVGWCVVHGRLLSADTKGWVRLQFHAGQAWVPTTHRRMISLFLLPACIFPSPGIEDNMLCPDCAKRNKKMMKRLMTVEK | soluble
MVNIMDEIIVVTTPTIPGYKIIEVKGIARGGIVMATHLGRDILALLRNIKGGEVKEYTQMMAEAREEALRRMIEHAKKLGANAVVNFRFATSNVGGGMAEVYAYGTAVVVEREKMASMTGGQQMGRIRIRLEHHHHHH | soluble
MARYTKEDIFRLAKEENVKYIRLQFTDLLGVIKNVEIPVSQLTKALDNKMMFDGSSIEGFVRIEESDMYLYPDLDTWVIFPWTAEKGKVARLICDIYNADGTPFEGDPRNNLKRVLKEMEALGFSDFNLGPEPEFFLFKVDEKGNPTLELNDNGGYFDLAPMDLGENCRRDIVLELEEMGFEIEASHHEVAPGQHEIDFKYANAIRSCDDIQTFKLVVKTIARKHGLHATFMPKPLYGVNGSGMHCNLSLFKNGENVFFDQNGDLQLSDDARHFIAGILKHAPAFTAVANPTVNSYKRLVPGYEAPCYVAWSAQNRSPLVRIPASRGISTRVEVRSVDPAANPYLVMATLLAAGLDGIKNKLTPPAAVDRNIYVMTKEEREEAGIVDLPATLAQALVTLQSNEVISNALGDHLLEHFIEAKEIEWDIFRTQVHQWERDQYMSLY | not soluble
MGSDKIHHHHHHMVNLDGGYTAYEQQHNNESFKLEKDKEIQIKDNRKTFNYSNLQCPGPIVNISKEIKNIAIGDQIEVVVTDHGFLNDIKSWVKQTGHTLVRLNDSGNEIRAIIQKEENKNIEVTHTKNGTTIVLFSGELDKAVAAMIIANGAKAAGRDVTIFCTFWGLNALKKIQSQRIKKKGIAKLFDFMLPNSPIKMPISKMNMFGVGNLMMRYVMKKKNVDDLPSLINQAVEQGVKLIACTMSMDVMGISKEELRDDVEYGGVGAYIGYTEQANHNLFI | not soluble
MSLPAKTLVQAAANSGLRAVSVRHSSQAPKVALLGAAGGIGQPLGLLLKQDPLVAHLALYDVVNTPGVAADLSHIDSNAKVTAHTGPKELYAAVENADVIVIPAGVPRKPGMTRDDLFNTNAGIVRDLAAVIAKASPKALIAIITNPVNSTVPIASEVLKKAGVYDPKRVFGVTTLDVVRSQAFVSELKGHDASKTVVPVVGGHAGITIIPLLSQVKPSTKFSEEEISKLTPRIQDAGTEVVNAKAGAGSATLSMALAGARFANALVRGIKGEKNVQCAYVASDAVKGVEYFSTPVELGPNGVEKILGVGKVSAYEQKLIDASVPELNKNIAKGVAFVKGN | not soluble
MSLVTSVSKLMFLGGSNKLICHNKETFVKILENPNQPLITVSNHRSNIDDPLMWCILKFREFWRYKDRNRYTLAAHNICFTKQFHTTMFSLGRCVPCVRGEGVYQKGMDFCVDMLNDNKWVHIFPEGKVCTLESEPLRFKWGIGRLVMDAKTDPVILPVWCKEMEKVWPTQPPYYPKFGNTVTVHIGEPFFLSDLKKTVLSKSLTTEQMRKIITDEVQTRMYQLGEKVGDLPKGSSLEILRKNPPIEY | not soluble
